Non-standard residues stand in square brackets, D forms with d. No end group written: not given here. pT = C[C@@H](OP(=O)(O)O)[C@H](N)C(=O)O; pS = N[C@@H](COP(=O)(O)O)C(=O)O
What was measured:
[1] = biological target: T1, HLA-A*0201 (HLA-A2) peptide complexes (Homo sapiens, UniProt P04439, D140Y/D185E/D98H/E176V/E277Q/G131W/G231S/I119V/I121R/I166T/I218V/L300P/L318F/N151K/N90K/P208A/P217A/Q86G/Q94H/R138H/R169H/T345S); assay: HLA-A*0201 phosphopeptides associated with leukemia samples (isolation of HLA-associated peptides); settings: for Copies/cell class, JY: EBV transformed B lymphoblastoid cell line JY; for Copies/cell class, AML1: acute myeloid leukemia sample AML1; for Copies/cell class, CLL1: chronic lymphocytic leukemia sample CLL1; for Copies/cell class, B Cell: healthy B cells; for Copies/cell class, T Cell: healthy T cells; for Copies/cell class, MCL: mantle cell lymphoma sample
T1 construct: endogenous in cells; host or cells: JY B-lymphoblastoid line; primary CLL, MCL, AML, ALL samples; healthy splenic T and B cells
Source text: To identify naturally processed tumor-associated phosphopeptides, HLA-A*0201 (HLA-A2) and HLA-B*0702 (HLA-B7) peptide complexes from four (4) chronic lymphocytic leukemia (CLL) tumor samples, a mantle cell lymphoma sample (MCL), one acute lymphoblastic leukemia (ALL), and an acute myeloid leukemia (AML) sample, in addition to healthy splenic T and B-cells and the cultured lymphoblastoid cell line JY were isolated. These efforts yielded 10 HLA-A2-restricted and 86 HLA-B7-restricted phosphopeptide antigens (see Tables 6 and 7).
All cell lines were grown at 37° C. with 5% CO2 in growth medium consisting of RPMI 1640 supplemented with 10% FCS and two mM L-glutamine. Blood or leukapheresis samples were taken from patients with high-burden leukemia in heparin. Tumor cells were recovered by layering the blood over density gradient (Ficoll) and collecting the tumor layer following centrifugation. The tumor was washed in tris-buffered saline (TBS). The purity of the tumor was assessed using flow cytometry and was >98% pure in all cases. For healthy T and B-cell populations, a normal spleen sample processed and tonsil sample was collected and lymphocytes released through mechanical disruption. Mononuclear cells were isolated using a density gradient and 10^9 T cells isolated using anti-CD19 or anti-CD3 microbeads (Miltenyi Biotec Inc., Auburn, California, United States of America) with purity >98% were obtained. Bone marrow sample was obtained from an elective orthopedic procedure and red cell-depleted using hypotonic lysis. This sample was not processed further.
Class I MHC molecules were immunoaffinity purified from the JY cell line or from primary tumor samples, and their associated peptides were extracted as previously described in Zarling et al., 2006. Approximately 1.2-14×10^9 cells were lysed in a solution containing 20 mM Tris-HCl (pH 8.0), 150 mM NaCl, 1% CHAPS, one mM PMSF, five μg/mL aprotinin, 10 μg/mL leupeptin, 10 μg/mL pepstatin A, 1 μg/ml calyculin A, and phosphatase inhibitor (cocktails I and II; Sigma-Aldrich). The mixture was subjected to centrifugation and the resulting supernatant was passed over protein A sepharose pre-loaded with the HLA-A2-specific antibody BB7.2 or HLA-B7-specific antibody MEL Peptides were eluted from the purified class I MHC molecules with 10% acetic acid.

[2] = biological target: T2, HLA-B*0702 (HLA-B7) peptide complexes (Homo sapiens, UniProt P01889); assay: HLA-B*0702 phosphopeptides associated with leukemia samples (isolation of HLA-associated peptides); settings: for Copies/cell class, ALL1: acute lymphoblastic leukemia sample ALL1; for Copies/cell class, B Cell: healthy B cells; for Copies/cell class, T Cell: healthy T cells
T2 construct: endogenous in cells; host or cells: JY B-lymphoblastoid line; primary ALL, CLL, HCL, AML samples; bone marrow; healthy B and T cells
Outline: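 Class I HLA-A2 and HLA-B7 complexes were immunoaffinity-purified (BB7.2 or MEL antibodies on protein A) from CHAPS lysates of ~1.2-14×10^9 cells, using phosphatase and protease inhibitors. Sources were Ficoll-purified (>98%) CLL, MCL, ALL and AML cells, healthy splenic T/B cells and JY cells. Peptides were eluted with 10% acetic acid.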

HLA-B*0702 = biological target: T3, HLA-B*0702 (Homo sapiens, UniProt P01889); assay: Phosphopeptides presented in association with class I molecules (HLA-B*0702) on cancer cells: melanoma and/or leukemia; parameters: key: Melanoma (M); Leukemia (L); L/M: Melanoma (M) and/or Leukemia (L); settings: cancer type on which the HLA-B*0702 phosphopeptide is presented
T3 construct: endogenous in cells; host or cells: melanoma and/or leukemia cells

Copies/cell class, CLL2 [1]	Copies/cell class, CLL3 [1]	Copies/cell class, CLL4 [1]	Copies/cell class, JY [1]	Copies/cell class, AML1 [1]	Copies/cell class, CLL1 [1]	Copies/cell class, B Cell [1]	Copies/cell class, T Cell [1]	Copies/cell class, MCL [1]	Copies/cell class, AML1 [2]	L/M (HLA-B*0702)	Substance	further results
0	1 (1 indicates <1 copy/cell)	0	0	0	0	0	0	0			456 (RQLSSGVSEI; SITE (1)..(10): One or more of the listed amino acids can be phosphorylated as set forth in the Tables; listed as Homo sapiens) [compound 456]	
0	1 (1 indicates <1 copy/cell)	0	0	0	0	0	0	0			460 (SMTRSPPRV; SITE (1)..(9): One or more of the listed amino acids can be phosphorylated as set forth in the Tables; listed as Homo sapiens) [compound 460]	
2 (2 indicates 1-5 copies/cell)	1 (1 indicates <1 copy/cell)	1 (1 indicates <1 copy/cell)	4 (4 indicates >25 copies per cell)	1 (1 indicates <1 copy/cell)	2 (2 indicates 1-5 copies/cell)	2 (2 indicates 1-5 copies/cell)	2 (2 indicates 1-5 copies/cell)	1 (1 indicates <1 copy/cell)			451 (RQASIELPSM; SITE (1)..(10): One or more of the listed amino acids can be phosphorylated as set forth in the Tables; listed as Homo sapiens) [compound 451]	
										L	386 (TPI[pS]PGRASGM; listed as Homo sapiens) [compound 386]	Copies/cell class, ALL1 [2]: 1 (1 indicates <1 copy/cell)
0	1 (1 indicates <1 copy/cell)	0	0	0	0	0	0	0			457 (RTFSPTYGL; SITE (1)..(9): One or more of the listed amino acids can be phosphorylated as set forth in the Tables; listed as Homo sapiens) [compound 457]	
										L	358 (RSE[pS]KDRKL; listed as Homo sapiens) [compound 358]	Copies/cell class, ALL1 [2]: 1 (1 indicates <1 copy/cell)
									1 (1 indicates <1 copy/cell)	L	297 (LPA[pS]PRARL; listed as Homo sapiens) [compound 297]	
									4 (4 indicates >25 copies per cell)	L	273 (FRR[pS]PTKSSLDY; listed as Homo sapiens) [compound 273]	
									2 (2 indicates 1-5 copies/cell)	L	351 (RPY[pS]PPFFSL; listed as Homo sapiens) [compound 351]	Copies/cell class, JY [2]: 2 (2 indicates 1-5 copies/cell); Copies/cell class, ALL1 [2]: 2 (2 indicates 1-5 copies/cell); Copies/cell class, B Cell [2]: 2 (2 indicates 1-5 copies/cell); Copies/cell class, T Cell [2]: 2 (2 indicates 1-5 copies/cell)
									2 (2 indicates 1-5 copies/cell)	L	337 (RPR[pS]PSPIS; listed as Homo sapiens) [compound 337]	

More lines, now with the values behind:

Substance	Copies/cell class, CLL2 [1]	Copies/cell class, CLL3 [1]	Copies/cell class, CLL4 [1]	Copies/cell class, JY [1]	Copies/cell class, AML1 [1]	Copies/cell class, CLL1 [1]	Copies/cell class, B Cell [1]	Copies/cell class, T Cell [1]	Copies/cell class, MCL [1]	Copies/cell class, AML1 [2]	L/M (HLA-B*0702)	further results
459 (RVASPTSGV; SITE (1)..(109: One or more of the listed amino acids can be phosphorylated as set forth in the Tables; listed as Homo sapiens) [compound 459]	1 (1 indicates <1 copy/cell)	0	0	0	0	1 (1 indicates <1 copy/cell)	0	0	1 (1 indicates <1 copy/cell)			
436 (KAKSPAPGL; SITE (1)..(9): One or more of the listed amino acids can be phosphorylated as set forth in the Tables; listed as Homo sapiens) [compound 436]	1 (1 indicates <1 copy/cell)	0	0	0	0	0	0	0	0			
464 (VMIGSPKKV; SITE (1)..(9): One or more of the listed amino acids can be phosphorylated as set forth in the Tables; listed as Homo sapiens) [compound 464]	0	0	0	0	0	0	0	0	1 (1 indicates <1 copy/cell)			
444 (KMDSFLDMQL; SITE (1)..(10): One or more of the listed amino acids can be phosphorylated as set forth in the Tables; listed as Homo sapiens) [compound 444]	0	0	1 (1 indicates <1 copy/cell)	2 (2 indicates 1-5 copies/cell)	0	0	0	0	0			
336 (RPR[pS]PRQNSI; listed as Homo sapiens) [compound 336]										2 (2 indicates 1-5 copies/cell)	L	
267 (APRRY[pS]SSL; listed as Homo sapiens) [compound 267]										1 (1 indicates <1 copy/cell)	L/M	
374 (SPRR[pS]RSISL; listed as Homo sapiens) [compound 374]										4 (4 indicates >25 copies per cell)	L/M	
323 (RPQRA[pT]SNVF; listed as Homo sapiens) [compound 323]										2 (2 indicates 1-5 copies/cell)	L	Copies/cell class, CLL2 ([2]; CLL2): 4 (4 indicates >25 copies per cell); Copies/cell class, CLL4 ([2]; CLL4): 4 (4 indicates >25 copies per cell); Copies/cell class, JY [2]: 4 (4 indicates >25 copies per cell); Copies/cell class, ALL1 [2]: 4 (4 indicates >25 copies per cell); Copies/cell class, HCL1 ([2]; hairy cell leukemia sample HCL1): 4 (4 indicates >25 copies per cell); Copies/cell class, B Cell [2]: 2 (2 indicates 1-5 copies/cell); Copies/cell class, T Cell [2]: 4 (4 indicates >25 copies per cell)

From patent US12042530B2, “Target peptides for immunotherapy and diagnostics” (University of Virginia Patent Foundation, priority 2012, dated 2024)
